Assay results published in paper PMC10397247.
Read-outs that look alike come from different tables or passages of the source.

Tests used:
zCON9_B = biological target: T1, zCON9_B; test: two-hybrid library CCmax;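 note: natural log of median RNA to DNA barcode read ratio; higher means stronger binding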
T1 chain: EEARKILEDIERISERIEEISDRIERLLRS

P7-AA = biological target: T2, P7-AA; test: two-hybrid library CCmax;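 note: natural log of median RNA to DNA barcode read ratio; higher means stronger binding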
T2 chain: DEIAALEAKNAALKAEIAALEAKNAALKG

zCON9_A = biological target: T3, zCON9_A; test: two-hybrid library CCmax;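 note: natural log of median RNA to DNA barcode read ratio; higher means stronger binding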
T3 chain: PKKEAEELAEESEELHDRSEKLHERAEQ

P9-AA = biological target: T4, P9-AA; test: two-hybrid library CCmax;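 note: natural log of median RNA to DNA barcode read ratio; higher means stronger binding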
T4 chain: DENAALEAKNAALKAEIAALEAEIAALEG

P4-AA = biological target: T5, P4-AA; test: two-hybrid library CCmax;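 note: natural log of median RNA to DNA barcode read ratio; higher means stronger binding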
T5 chain: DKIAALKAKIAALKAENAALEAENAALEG

zCON9_D = biological target: T6, zCON9_D; test: two-hybrid library CCmax;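 note: natural log of median RNA to DNA barcode read ratio; higher means stronger binding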
T6 chain: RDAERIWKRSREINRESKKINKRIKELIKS

P8-AA = biological target: T7, P8-AA; test: two-hybrid library CCmax
T7 chain: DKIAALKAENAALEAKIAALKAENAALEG

P3-AA = biological target: T8, P3-AA; test: two-hybrid library CCmax
T8 chain: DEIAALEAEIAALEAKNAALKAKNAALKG

O9-bS = biological target: T9, O9-bS; test: two-hybrid library CCNG1
T9 chain: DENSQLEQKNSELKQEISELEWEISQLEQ

O8-bS = biological target: T10, O8-bS; test: two-hybrid library CCNG1
T10 chain: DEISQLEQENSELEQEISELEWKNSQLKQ

Binder: DKIAALKAKIAALKAENAALEAENAALEG [P4-AA]
- interaction score (zCON9_B; mean of both orientations): -1.1
- interaction score (P7-AA; mean of both orientations): -1.41
- interaction score (zCON9_A): -1.68
- interaction score (P9-AA; mean of both orientations): -1.18
- interaction score (P4-AA): -2.32
- interaction score (zCON9_D; mean of both orientations): -3.43
- interaction score (P8-AA; mean of both orientations): -1.82

Binder: DEIAALEAEIAALEAKNAALKAKNAALKG [P3-AA]
- interaction score (zCON9_B; mean of both orientations): -1.33
- interaction score (P7-AA; mean of both orientations): -1.27
- interaction score (P3-AA): -1.46
- interaction score (zCON9_A): -1.78
- interaction score (P9-AA; mean of both orientations): -1.38
- interaction score (P4-AA; mean of both orientations): 2.28
- interaction score (zCON9_D; mean of both orientations): -2.08
- interaction score (P8-AA; mean of both orientations): -0.983

Binder: DKIAALKAENAALEAKIAALKAENAALEG [P8-AA]
- interaction score (zCON9_B; mean of both orientations): -1.66
- interaction score (zCON9_A): -1.74
- interaction score (P9-AA; mean of both orientations): -0.207
- interaction score (zCON9_D; mean of both orientations): -1.98
- interaction score (P8-AA): -1.57

Binder: DENAALEAKNAALKAEIAALEAEIAALEG [P9-AA]
- interaction score (zCON9_B): -1.59
- interaction score (zCON9_A): -1.13
- interaction score (P9-AA): -1.97
- interaction score (zCON9_D; mean of both orientations): -1.94

Binder: DENSQLEQKNSELKQEISELEWEISQLEQ [O9-bS]
- interaction score (O9-bS; mean of both orientations): -1.16

Binder: DEIAALEAKNAALKAEIAALEAKNAALKG [P7-AA]
- interaction score (zCON9_B; mean of both orientations): -1.46
- interaction score (P7-AA): -1.79
- interaction score (zCON9_A): -1.78
- interaction score (P9-AA; mean of both orientations): -1.14
- interaction score (zCON9_D): -1.95
- interaction score (P8-AA; mean of both orientations): 1.87

Binder: DEISQLEQENSELEQEISELEWKNSQLKQ [O8-bS]
- interaction score (O9-bS): -0.376
- interaction score (O8-bS): -2.12
